Data on three molecules can be found in patent publication US20230293705A1, “NANOPARTICLES INCLUDING A GLATIRAMOID USEFUL IN POLYNUCLEOTIDE DELIVERY” (King AbdulAziz University, priority 2017, published 2023).

No end group written: not given here.

For one data set, the system named is pDNA (pGL3). The experiment in a line: Agarose gel electrophoresis of polycation-pDNA nanoparticles. The class given is physicochemical. The conditions noted are these: for immobilization of pDNA in agarose gel: N/P ratio of 0.5. As for the experimental part: Nanoparticle Formation. GA-pDNA nanoparticles, K100-pDNA nanoparticles, and K9-pDNA nanoparticles were prepared by adding 15 µL of the GA, K100, or K9 solutions at polymer nitrogen to pDNA phosphate ([…]) of pDNA (TAE Buffer (1x) was used as a solution for DNA storage), followed by repeated pipetting for 20-25 seconds. At that point, 15 µL of CaCl2 (0 or 38 mmol/L) was added to determine the effect of calcium. After formulating, samples were stored at 4° C. for ~20 minutes. PEI-pDNA nanoparticles were prepared by adding 15 µL of PEI solution (N/P ratio of 10) to 10 µL (0.1 µg/µL) of pDNA followed by pipetting for 20-25 seconds. After preparing PEI-pDNA nanoparticles, they were stored at 4° C. for ~20 minutes. All nanoparticles in this study were prepared immediately before each experiment.
Agarose Gel Electrophoresis. GA-pDNA nanoparticles, K100-pDNA nanoparticles, and K9-pDNA nanoparticles were prepared as defined above and subsequently, 4 µL of Tris-acetate-EDTA (TAE) buffer was added. Then, 4 µL of SYBR Green 1 was mixed with the nanoparticles. Afterward, the mixture was stored at 4° C. for 20-25 minutes. Then, 7 µL of 6X DNA loading dye (Takara Bio Inc., Japan) was added. A one kb DNA ladder (Promega, Madison, WI) was used. The mixture solutions were loaded onto a 1% agarose gel, and electrophoresed for 30 minutes at 110 V.

The test system of another data set is A549 cells. The experiment in a line: MTS cytotoxicity assay in A549 cells. Type of data set: cell-based, human. As for the experimental part:
(§1) Cytotoxicity Assay. Cytotoxicity of GA, K100, and K9, PEI, and CaCl2 was determined using a Cell Titer 96® AQueous Non-Radioactive Cell Proliferation Assay (MTS) obtained from Promega (Madison, Wisconsin). A549 and HeLa cells were cultured in a 96-well plate as described previously. Cells were treated with the samples for ~24 hours. Then, the media were replaced with a mixture of 100 µL of fresh serum medium and 20 µL of MTS. The plate was incubated for 3-4 hours in the incubator. To determine cell viability, the absorbance of each well was measured by a microplate reader (SpectraMax; Molecular Devices Crope, CA) at 490 nm and normalized to untreated control cells.
A general note: Formazan colour is commonly taken as a measure of viable cells.

Another data set has as its system HeLa cells. The experiment in a line: MTS cytotoxicity assay in HeLa cells. The class given is cell-based, human. The conditions noted are these: ~24 hours treatment. The procedure:
as §1

As to “K9: KKKKKKKKK (SEQ ID NO: 1), C-terminal amide, Mw = 1170.65 Da (KKKKKKKKK-NH2)”, in the data set with pDNA (pGL3), the “immobilization of pDNA in agarose gel” value is given as “did not”. Besides, in the data set with pDNA (pGL3) (N/P ratio of 1), the “complexation of pDNA in agarose gel” value is reported as “did not completely complex pDNA”.

For the molecule Glatiramer Acetate [GA], the “immobilization of pDNA in agarose gel” value in the data set with pDNA (pGL3) is listed as “able to immobilize pDNA completely”. The cytotoxicity result with A549 cells (up to 1 mg/mL, cell line not stated at the place (A549 and HeLa tested)) was “negligible cytotoxicity”.

B1: K100: (KKKKKKKKKK)n=10 (SEQ ID NO: 2), Mw = 16,000 Da, high molecular weight polylysine (peptide)
chain: KKKKKKKKKKKKKKKKKKKKKKKKKKKKKKKKKKKKKKKKKKKKKKKKKKKKKKKKKKKKKKKKKKKKKKKKKKKKKKKKKKKKKKKKKKKKKKKKKKKK
modifications: ten repeats of SEQ ID NO:2 motif
Take B1: the “immobilization of pDNA in agarose gel” value with pDNA (pGL3) was “able to immobilize pDNA completely”. For the same molecule, the “cytotoxicity (MTS)” value is recorded as “highly cytotoxic at low concentrations” with A549 cells (A549 cells, ~24 hours treatment) and “highly cytotoxic at low concentrations” in the data set on HeLa cells.
